The results in this text go back to IntAct's records for PubMed 29039417.

B1: BBSome complex member BBS2 (Homo sapiens), Q9BXC9 (parent)
chain: MLLPVFTLKLRHKISPRMVAIGRYDGTHPCLAAATQTGKVFIHNPHTRNQHVSASRVFQSPLESDVSLLSINQAVSCLTAGVLNPELGYDALLVGTQTNLLAYDVYNNSDLFYREVADGANAIVLGTLGDISSPLAIIGGNCALQGFNHEGSDLFWTVTGDNVNSLALCDFDGDGKKELLVGSEDFDIRVFKEDEIVAEMTETEIVTSLCPMYGSRFGYALSNGTVGVYDKTSRYWRIKSKNHAMSIHAFDLNSDGVNELITGWSNGKVDARSDRTGEVIFKDNFSSAIAGVVEGDYRMDGHIQLICCSVDGEIRGYLPGTAEMRGNLMDTSAEQDLIRELSQKKQNLLLELRNYEENAKAELASPLNEADGHRGIIPANTRLHTTLSVSLGNETQTAHTELRISTSNDTIIRAVLIFAEGIFTGESHVVHPSIHNLSSSICIPIVPPKDVPVDLHLKAFVGYRSSTQFHVFESTRQLPRFSMYALTSLDPASEPISYVNFTIAERAQRVVVWLGQNFLLPEDTHIQNAPFQVCFTSLRNGGHLHIKIKLSGEITINTDDIDLAGDIIQSMASFFAIEDLQVEADFPVYFEELRKVLVKVDEYHSVHQKLSADMADHSNLIRSLLVGAEDARLMRDMKTMKSRYMELYDLNRDLLNGYKIRCNNHTELLGNLKAVNQAIQRAGRLRVGKPKNQVITACRDAIRSNNINTLFKIMRVGTASS
partner: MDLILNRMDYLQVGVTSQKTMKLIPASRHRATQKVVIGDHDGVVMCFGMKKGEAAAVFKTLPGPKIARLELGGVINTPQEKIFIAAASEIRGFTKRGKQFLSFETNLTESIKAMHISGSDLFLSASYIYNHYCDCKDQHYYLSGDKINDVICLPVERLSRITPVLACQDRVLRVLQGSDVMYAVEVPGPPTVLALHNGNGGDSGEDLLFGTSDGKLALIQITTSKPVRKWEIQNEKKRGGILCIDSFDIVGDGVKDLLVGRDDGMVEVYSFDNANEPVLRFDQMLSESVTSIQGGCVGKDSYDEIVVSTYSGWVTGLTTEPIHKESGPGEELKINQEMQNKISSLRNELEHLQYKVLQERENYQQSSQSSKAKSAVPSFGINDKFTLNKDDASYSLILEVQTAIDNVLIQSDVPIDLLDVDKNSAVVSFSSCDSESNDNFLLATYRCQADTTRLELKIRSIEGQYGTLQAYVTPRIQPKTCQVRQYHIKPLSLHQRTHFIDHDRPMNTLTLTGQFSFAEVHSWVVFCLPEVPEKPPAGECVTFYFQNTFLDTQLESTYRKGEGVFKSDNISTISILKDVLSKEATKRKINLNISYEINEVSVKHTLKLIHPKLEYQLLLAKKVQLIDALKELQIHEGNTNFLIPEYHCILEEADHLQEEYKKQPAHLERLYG

In this test the parent is B1. The note with it: with BBS7, Q8IWZ6-2.
Turning to S493N, the “effect of a mutation on the interaction” value is listed as “disrupting interaction strength”.
Then M483K, with “disrupting interaction strength”; and P491A, with “with no effect”; and L650K, with “with no effect”.
Then Q608A, with “with no effect”; and L391A, with “with no effect”; and K449E, with “with no effect”.
Then D585A, with “with no effect”; and P448K, with “with no effect”; and Y484E, with “with no effect”.
For A361E, the “effect of a mutation on the interaction” value was “with no effect”.
For S618E, the “effect of a mutation on the interaction” value is “with no effect”.
Then I556K, with “with no effect”.
With Q343A, the “effect of a mutation on the interaction” value is “with no effect”.
Then Q343E, with “with no effect”; and D653E, with “with no effect”; and T639E, with “with no effect”.
Then I548K, with “with no effect”.
Then R403K, with “with no effect”.
Consider T524K, for which the “effect of a mutation on the interaction” value is “with no effect”.
As to D566K, the “effect of a mutation on the interaction” value is reported as “with no effect”.
Then K689E, with “with no effect”; and I412K, with “with no effect”; and I412E, with “with no effect”.
On to A584K, for which the “effect of a mutation on the interaction” value was “with no effect”.
For the variant F460K, the “effect of a mutation on the interaction” value is given as “with no effect”.
Then F469S, with “disrupting interaction strength”; and A697K, with “with no effect”.
Next, L352K: “with no effect”.
Next, L352A: “with no effect”; S388K: “with no effect”.
As to T718K, the “effect of a mutation on the interaction” value is “with no effect”.
Then I377E, with “with no effect”; and A678K, with “with no effect”; and N540K, with “with no effect”.
Regarding V389A, the “effect of a mutation on the interaction” value is given as “with no effect”.
For S405K, the “effect of a mutation on the interaction” value was “with no effect”.
In the case of G421E, the “effect of a mutation on the interaction” value is on record as “with no effect”.
Then L710K, with “with no effect”.
In the case of R506E, the “effect of a mutation on the interaction” value is reported as “with no effect”.
Then H456K, with “with no effect”.
Next, L669E: “with no effect”; L341E: “with no effect”; E578A: “with no effect”.
I441E: the “effect of a mutation on the interaction” value is given as “disrupting interaction strength”.
As for P444A, the “effect of a mutation on the interaction” value is recorded as “with no effect”.
Next, F575K: “with no effect”.
Then T410K, with “with no effect”; and L597K, with “with no effect”.
Next, R539K: “with no effect”; V716E: “with no effect”; L544S: “disrupting interaction strength”.
D630K: the “effect of a mutation on the interaction” value is on record as “with no effect”.
Then N380E, with “disrupting interaction strength”.
Then Y644A, with “with no effect”.
Next, L655E: “with no effect”; A564K: “with no effect”.
With V606A, the “effect of a mutation on the interaction” value was “with no effect”.
With K595E, the “effect of a mutation on the interaction” value is “with no effect”.
Next, S605A: “with no effect”.
Next, Y648A: “with no effect”.
Next, I376A: “with no effect”; I376K: “with no effect”; T475E: “with no effect”.
I660K: the “effect of a mutation on the interaction” value is “with no effect”.
Next, K599A: “with no effect”; G375A: “with no effect”.
Next, S465K: “with no effect”; V430K: “with no effect”.
Then G372K, with “with no effect”; and H665A, with “with no effect”; and S720E, with “with no effect”.
In the case of C662K, the “effect of a mutation on the interaction” value was “with no effect”.
Next, V512A: “with no effect”; Y603K: “with no effect”.
With D330K, the “effect of a mutation on the interaction” value is “with no effect”.
Then R594K, with “with no effect”.
Then V596K, with “with no effect”; and N327K, with “with no effect”.
In the case of D450E, the “effect of a mutation on the interaction” value was “with no effect”.
Next, R703K: “with no effect”; R703E: “with no effect”.
Next, N656E: “with no effect”; L416E: “with no effect”.
Then I577E, with “with no effect”; and V694A, with “with no effect”.
With A459E, the “effect of a mutation on the interaction” value is listed as “with no effect”.
As for A379E, the “effect of a mutation on the interaction” value is recorded as “with no effect”.
For I679K, the “effect of a mutation on the interaction” value is “disrupting interaction strength”.
Next, E591K: “with no effect”; N557A: “with no effect”.
